# Experimental data taken from patent publication US20170304407.
# B1: oscutarin C (OsPA), Group C prothrombin activator purified from Oxyuranus scutellatus (Coastal Taipan) venom, preparation 17 Apr. 2012 (protein)
# chain 1: ANSLYEEFRSGNIERECIEERCSKEEAREVFEDDEKTETFWNVYVDGDQCSSNPCHYRGTCKDGIGSYTCTCLSGYEGKNCERVLYKSCRVDNGNCWHFCKPVQNDIQCSCAEGYLLGEDGHSCVAGGNFSCGRNIKTRNKREASLPDFVQSQNAILLKKSDNPSPDIRIVNGMDCKLGECPWQAVLVDEKEDAFCGGTILSPIYVLTAAHCINQTKMISVVVGEINISRKNPGRLLSVDKIYVHQKFVPPKKGYEFYEKFDLVSYDYDIAILQMKTPIQFSENVVPACLPTADFANQVLMKQDFGIVSGFGRIFEKGPQSKTLKVLKVPYVDRHTCMLSSESPITPTMFCAGYDTLPRDACQGDSGGPHITAYRDTHFITGIVSWGEGCAQTGKYGVYTKVSKFILWIKRIMRQKLPSTESSTGRL
# chain 2: AQLREYRLAAQLEDWDYNPQPEELSRLSESDLTFKKIVYREYELDFKQEKPRDELSGLLGPTLRGEVGDSLIIYFKNFATQPVSIHPQSAVYNKWSEGSSYSDGTSDVERLDDAVPPGQSFKYVWNITAEIGPKKADPPCLTYAYYSHVNMVRDFNSGLIGALLICKEGSLNADGAQKFFNREYVLMFSVFDESKNWYRKPSLQYTINGFANGTLPDVQACAYDHISWHLIGMSSSPEIFSVHFNGQTLEQNHYKVSTINLVGGASVTANMSVSRTGKWLISSLVAKHLQAGMYGYLNIKDCGNPDTLTRKLSFRERRRIMKWEYFIAAEEITWDYAPEIPSSVDRRYKAQYLDNFSNFIGKKYKKAVFRQYEDSNFTKPTYAIWPKERGILGPVIKAKVRDTVTIVFKNLASRPYSIYVHGVSVSKDAEGAVYPSDPKENITHGKAVEPGQVYTYKWTVLDTDEPTVKDSECITKLYHSAVDMTRDIASGLIGPPLVCKRKALSIRGVQNKADVEQHAVFAVFDENKSWYLEDNIKKYCSNPSSVKKDDPKFYKSNVMYTLNGYASDRTEVWGFHQSEVVEWHLTSVGTVDEIVPVHLSGHTFLSKGKHQDILNLFPMSGESATVTMDNLGTWLLSSWGSCEMSNGMRLRFLDANYDDEDEGNEEEEEDDGDIFADIFNPPEVVIKKEEVPVNFVPDPESDALAKELGLFDDEDNPKQSRSEQTEDDEEQLMIASMLGLRSFKGSVAEEELKHTALALEEDAHASDPRIDSNSAHNSDDIAGRYLRTINRRNKRRYYIAAEEVLWDYSPIGKSQVRSLPAKTTFKKAIFRSYLDDTFQTPSTGGEYEKHLGILGPIIRAEVDDVIEVQFRNLASRPYSLHAHGLLYEKSSEGRSYDDNSPELFKKDDAIMPNGTYTYVWQVPPRSGPTDNTEKCKSWAYYSGVNPEKDIHSGLIGPILICQKGMIDKYNRTIDIREFVLFFMVFDEEKSWYFPKSDKSTCEEKLIGVQSRHTFPAINGIPYQLQGLMMYKDENVHWHLLNMGGPKDVHVVNFHGQTFTEEGREDNQLGVLPLLPGTFASIKMKPSKIGTWLLETEVGENQERGMQALFTVIDKDCKLPMGLASGIIQDSQISASGHVGYWEPKLARLNNTGMFNAWSIIKKEHEHPWIQIDLQRQVVITGIQTQGTVQLLKHSYTVEYFVTYSKDGQNWITFKGRHSKTQMHFEGNSDGTTVKENHIDPPIIARYIRLHPTKFYNTPTFRIELLGCEVEGCSVPLGMESGAIKDSEITASSYKKTWWSSWEPFLARLNLKGRTNAWQPKVNNKDQWLQIDLQHLTKITSIITQGATSMTTSMYVKTFSIHYTDDNSTWKPYLDVRTSMEKVFTGNINSDGHVKHFFNPPILSRFIRIIPKTWNQYIALRIELFGCEVF
# Target: prothrombin
protein,measurement,value
B1,rate of prothrombin activation in the S-2238 two-stage assay (thrombin produced against sampling time),(eg) (9.98e-6 umol/min)
same,specific activity of the prothrombin activator (rate of thrombin production against OsPA concentration),(eg) (5.0e-3 units/mg)
